Legend:
[1] = molecular target: T1, GST-IFNAR1 (wild type): bacterially expressed cytoplasmic domain of IFNAR1 fused with GST (UniProt P17181)
T1 sequence: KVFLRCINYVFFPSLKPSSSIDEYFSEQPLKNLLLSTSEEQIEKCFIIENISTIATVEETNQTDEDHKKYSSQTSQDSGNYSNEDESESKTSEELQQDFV

[2] = molecular target: T2, recombinant PKD2 used as substrate of Tyk2 and Src (UniProt Q9BZL6)
T2 sequence: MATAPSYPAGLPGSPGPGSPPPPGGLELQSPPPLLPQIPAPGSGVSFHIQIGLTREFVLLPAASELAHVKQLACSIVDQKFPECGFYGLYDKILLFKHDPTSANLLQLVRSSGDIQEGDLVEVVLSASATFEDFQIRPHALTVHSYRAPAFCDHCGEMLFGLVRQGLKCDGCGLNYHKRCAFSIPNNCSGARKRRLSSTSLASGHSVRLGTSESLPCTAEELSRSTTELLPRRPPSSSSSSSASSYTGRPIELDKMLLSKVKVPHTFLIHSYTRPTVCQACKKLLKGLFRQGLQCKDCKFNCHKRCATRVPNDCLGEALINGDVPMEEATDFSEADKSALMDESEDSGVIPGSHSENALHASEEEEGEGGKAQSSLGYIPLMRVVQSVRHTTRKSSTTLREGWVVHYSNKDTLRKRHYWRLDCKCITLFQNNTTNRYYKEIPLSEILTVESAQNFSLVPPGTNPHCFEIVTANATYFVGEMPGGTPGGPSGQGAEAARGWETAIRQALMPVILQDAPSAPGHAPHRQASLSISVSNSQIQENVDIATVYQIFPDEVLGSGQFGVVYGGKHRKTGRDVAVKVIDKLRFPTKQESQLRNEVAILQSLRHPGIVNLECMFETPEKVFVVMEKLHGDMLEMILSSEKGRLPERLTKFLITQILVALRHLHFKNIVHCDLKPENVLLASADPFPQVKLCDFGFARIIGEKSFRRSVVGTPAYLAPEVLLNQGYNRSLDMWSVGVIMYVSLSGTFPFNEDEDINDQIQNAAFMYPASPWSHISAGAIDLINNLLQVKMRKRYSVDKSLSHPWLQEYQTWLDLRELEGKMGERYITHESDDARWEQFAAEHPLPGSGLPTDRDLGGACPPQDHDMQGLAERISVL

[3] = tested on: purified recombinant Nrf2-Neh2 domain T80A
[4] = tested on: purified recombinant Nrf2-Neh2 domain S40A
[5] = tested on: purified recombinant Nrf2-Neh2 domain (wild type)

GST-tagged PKD2 kinase-dead K580N mutant
in vitro phosphorylation of GST-IFNAR1 on Ser535 (immunoblot with anti-pS535) [1]: Ser535 phosphorylation on GST-IFNAR1 incubated with ATP and GST-PKD2 was not evident when a catalytically deficient (kinase-dead, KD) K580N mutant was used in the reaction

HA-tagged Leishmania major CK1 (L-CK1) immunopurified from 293T cells
immunokinase assay: phosphorylation of GST-IFNAR1 on Ser535 [1]: immunopurified human CK18, CK1E, and protozoan parasite L-CK1 were active against IFNAR1S535 in the immunokinase assay in vitro

HA-tagged Tyk2 immunopurified from cells
in vitro tyrosine phosphorylation of PKD2 (immunoblot with anti-phospho-Tyr antibody) [2]: A robust increase in Tyr phosphorylation of PKD2 was seen when HA-Tyk2 was purified from IFN-a-treated cells

Myc-tagged human CK1δ immunopurified from 293T cells
immunokinase assay: phosphorylation of GST-IFNAR1 on Ser535 [1]: immunopurified human CK18, CK1E, and protozoan parasite L-CK1 were active against IFNAR1S535 in the immunokinase assay in vitro

bacterially produced recombinant GST-CK1α
in vitro phosphorylation of GST-IFNAR1 on Ser535 and Ser532 (immunoblot with phospho-specific antibodies) [1]: Incubation of recombinant CKla with wild type GST-IFNAR1 substrate and ATP in vitro resulted in phosphorylation of Ser535 but not of Ser532

recombinant Src (purchased from Cell Signaling)
in vitro tyrosine phosphorylation of PKD2 (immunoblot with anti-phospho-Tyr antibody) [2]: tyrosine phosphorylation of PKD2 was easily detected when recombinant Sre protein was used as positive control

recombinant bacterially produced constitutively active ΔN-PERK
in vitro kinase assay, autoradiography [3]: mutation of threonine 80 to alanine abrogated phosphorylation | in vitro kinase assay [1]: activated PERK was not capable of phosphorylating IFNAR1 in vitro | in vitro kinase assay, autoradiography [4]: Purified recombinant PERK phosphorylated wild type Nrf2-Neh2 and a serine 40 to alanine mutant; however, mutation of threonine 80 to alanine abrogated phosphorylation | in vitro kinase assay, autoradiography [5]: Purified recombinant PERK phosphorylated wild type Nrf2-Neh2 and a serine 40 to alanine mutant; however, mutation of threonine 80 to alanine abrogated phosphorylation

Reference: patent US20120014911
